The values below come from paper PMC6650940, “Investigations of Accessibility of T2/T3 Copper Center of Two-Domain Laccase from Streptomyces griseoflavus Ac-993” (International Journal of Molecular Sciences, 2019).

Substrate in series [1]: CCn1c(=NN=c2sc3cc(S(=O)(=O)O)ccc3n2CC)sc2cc(S(=O)(=O)O)ccc21
The experiment in a line: purified protein. The class given is biochemical, Streptomyces griseoflavus. The note with it: pH 4.0, 30 °C, Britton-Robinson buffer, 1 mM CuSO4 growth medium.

Substrate in series [2]: COc1cccc(OC)c1O
Briefly: purified protein. The class given is biochemical, Streptomyces griseoflavus. The note with it: pH 9.0, 30 °C, Britton-Robinson buffer, 1 mM CuSO4 growth medium.

Positions count from the first letter of the chain named. In names and notes the source's numbering stands.

B1: SgfSL wt (two-domain laccase, Streptomyces griseoflavus Small Laccase) (Streptomyces griseoflavus; I170A) (protein)
chain: AGAAPAGGEVRRVTMYAERLAGGQMGYGLEKGKASIPGPLIELNEGDTLHVEFENTMDVPVSLHVHGLDYEISSDGTKQNKSHVEPGGTRTYTWRTHEPGRRADGTWRAGSAGYWHYHDHVVGTEHGTGGARNGLYGPVIVRRKGDVLPDATHTIVFNDMTINNRPAHTGPNFEATVGDRVEIVMITHGEYYHTFHMHGHRWADNRTGMLTGPDDPSQVIDNKICGPADSFGFQIIAGEGVGAGAWMYHCHVQSHSDMGMVGLFLVKKPDGTIPGYDPQEHAH
notes: Ni-NTA purified from E. coli (pQE-30); I170A and I170F from pET32-Xa/LIC with thioredoxin tag cut by factor Xa (forward primer encodes AGAAPAGG...); homotrimer
With B1, in “purified protein [1]”, the Km (in general, the substrate concentration at which the rate is half of its maximum) was 630 ± 110 µM; the kcat (in general, the maximal rate divided by the concentration of active sites) amounted to 0.7 ± 0.2 s⁻¹; the specificity constant (kcat/Km) (in general, the turnover number divided by the Michaelis constant) was determined as 1110 M⁻¹ s⁻¹.

B2: SgfSL wt (two-domain laccase, Streptomyces griseoflavus Small Laccase) (Streptomyces griseoflavus; I170F) (protein)
chain: B1 chain with A131F
notes: as for B1
Turning to B2, in “purified protein [1]”, the Km was 200 ± 40 µM, the kcat stood at 0.08 ± 0.01 s⁻¹ and the specificity constant (kcat/Km) turned out to be 400 M⁻¹ s⁻¹.

B3: SgfSL wt (two-domain laccase, Streptomyces griseoflavus Small Laccase) (Streptomyces griseoflavus) (protein)
chain: B1 chain with A131I
notes: as for B1
As to B3, in “purified protein [2]”, the Km came to 5200 ± 110 µM, the kcat amounted to 0.8 ± 0.09 s⁻¹ and the kcat/Km came to 150 M⁻¹ s⁻¹.
